Reference: the supplement of paper PMC10567573
± gives the standard deviation.

Test: protein stability index of a GFP-peptide fusion (GPS, HEK-293T) (PSI 1-6); higher = more stable
Conditions: c terminus: a fixed tail appended
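Note: 24-mer peptide tiles fused after GFP, lentivirally expressed, FACS-sorted into six equal bins by GFP/DsRed ratio, decoded by Illumina sequencing, PSI is the read-weighted mean bin number.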

Sequence	protein stability index (treatment: DMSO)	protein stability index (treatment: MLN4924 1 uM, 8 h)
WDPHNGDILMEFGHLFPPPTPIFA [WSB1]	2.38 ± 0.31	2.21 ± 0.27
WLSDWVTSYKVMVSNDSHTWVTVK [CPXM2]	2.67 ± 1.5	2.56 ± 0.2
WMIEEKATITSRGSSLSGSLCSLL [LURAP1L]	2.28 ± 0.17	2.47 ± 0.2
WMKHNVADSQITTIGNLVPQKTYS [PTPRD]	3.29 ± 0.55	3.17 ± 0.29
WQRGLNTPEDSDPDHFDTAILFTR [ADAMTS4]	3.54 ± 0.25	3.5 ± 0.46
WQRQMDQPQDRNQALGTHRPVNKL [RASAL3]	4.39 ± 0.35	4.49 ± 0.14
WWNHMHFQHHAKPNCFRKDPDINM [FADS1]	2.17 ± 0.42	2.26 ± 0.49
YCFCGWIVLGPYHVKFRSLSMVSE [MCOLN1]	2.85 ± 1.1	3.1 ± 1.3
YCKPTRLDLLLDMPPVSYDVQLLH [SPSB1]	2.2 ± 0.23	2.14 ± 0.33
YDVAMNRAKDLVELDPEVEGTKPS [GOLPH3L]	5.54 ± 0.2	5.603 ± 0.052
YDVKYLMKSCKNLKGGLQEVAEQL [CNOT7]	2.61 ± 0.43	2.98 ± 0.33
YECGVCAKKFMWRDSFMRHRGHCE [ZBTB22]	5 ± 0.16	4.99 ± 0.17
YEKTPFDQLAFIEELFSLMVVNRL [EID1]	2.68 ± 0.36	3.01 ± 0.43
YFSLYCLHQETQLIHVYLPLTSHI [SNX8]	2.95 ± 0.35	2.78 ± 0.32
YFYDPIERDIEIGFLPWLMNEVEK [RSPH3]	2.04 ± 0.74	2.42 ± 0.25
YGHELLINTLITSGADTAKCGIHS [ANKRD44]	2.27 ± 0.38	1.99 ± 0.2
YHINSISVNSDCETYMSADDLRIN [PPP2R2C]	2.89 ± 0.44	3.2 ± 0.29
YIGFYGKETTNTCILKCNLCSVNI [PDS5B]	2.98 ± 1.6	2.96 ± 1
YIMTRDYLTVKVWDLNMENRPIET [PPP2R2B]	2.16 ± 0.5	2.45 ± 0.26

Sequence	protein stability index (treatment: DMSO)	protein stability index (treatment: MLN4924 1 uM, 8 h)
YLILALLSVTISFRIYKSVIQAVQ [RTN3]	3.42 ± 0.42	2.99 ± 0.48
YLPKNTHPFLYLSLEISPQNVDVN [MLH1]	3.23 ± 1.1	2.09 ± 0.3
YLVQGLVEECQAALQNKDTYEPFC [KCTD10]	2.32 ± 0.46	2.65 ± 0.24
YMLFDPKDSVMQQNLVYYRFHRAR [P3H4]	2.26 ± 0.25	2.27 ± 0.53
YMNFRVKACNKAVAGEFSEPVTLE [FSD1]	3.03 ± 0.29	2.93 ± 0.46
YNIKLKWTNQQKLYSRTGDIVEFV [CFHR2]		2.46 ± 0.41
YPTTLGKDRECQSQSLALKEQNNL [ZNF8]	4.39 ± 0.16	4.52 ± 0.19
YQEIFQQLQRSWVKMDQKSKHLKE [TRIM43]	2.41 ± 0.32	2.6 ± 0.32
YQLPQMPDVVVRSFMTWLRSYIKL [MED27]	2.01 ± 0.13	2.25 ± 0.21
YRPLKQELQGLDYCKPTRLDLLLD [SPSB1]	2.77 ± 0.29	2.6 ± 0.32
YSLTTSSTHKSSLCKVEIVCPPQS [RAB40A]	2.64 ± 0.19	2.64 ± 0.12
YSQDPVYANGGLNYSYRGYGALSS [NOL4L]	2.4 ± 0.23	2.71 ± 0.2
YSRGYRNRRSSRETREYAPPSRGH [RBMY1A1]	4.38 ± 0.27	4.76 ± 0.23
YTSSQKVSPIQIDGAGRTWQDSDT [TOR1AIP2]	3.62 ± 0.36	4.2 ± 0.51
YVIGGRNETGYLSSVECYNLETNE [KLHL14]	2.66 ± 0.31	3.02 ± 0.59
YVKPQSCIDIVIRHVAPIPSHYDV [MOSPD3]	2.97 ± 0.74	2.74 ± 0.85
YYHRRNEMTTTDDLDFKHHNYKEM [CPXM2]	3.22 ± 0.33	3.35 ± 0.25
YYLRKGKKINSNQLENEQSQENSI [SPANXN3]	4.47 ± 0.23	4.23 ± 0.27
YYNVVLLRYQFSRPGPQSVPLQLS [FCHO1]	3.13 ± 0.43	2.91 ± 0.53
